In data set [1] the target is T1, Glypican-3 (GPC3) (UniProt P51654 P51654:25-554). Briefly: filter; gemcitabine at 3' end; values only in figure.
The target of data set [2] is T1, Glypican-3 (GPC3). Kind of data set: Kd similar to 12-10; GPC3-Cy5; value only in figure. To be noted: label: 5' Cy5 (cell assays).
Data set [3] addresses T1, Glypican-3 (GPC3). Briefly: filter; gemcitabine in loop; values only in figure.

T1 sequence (P51654 25-554, one chain of several): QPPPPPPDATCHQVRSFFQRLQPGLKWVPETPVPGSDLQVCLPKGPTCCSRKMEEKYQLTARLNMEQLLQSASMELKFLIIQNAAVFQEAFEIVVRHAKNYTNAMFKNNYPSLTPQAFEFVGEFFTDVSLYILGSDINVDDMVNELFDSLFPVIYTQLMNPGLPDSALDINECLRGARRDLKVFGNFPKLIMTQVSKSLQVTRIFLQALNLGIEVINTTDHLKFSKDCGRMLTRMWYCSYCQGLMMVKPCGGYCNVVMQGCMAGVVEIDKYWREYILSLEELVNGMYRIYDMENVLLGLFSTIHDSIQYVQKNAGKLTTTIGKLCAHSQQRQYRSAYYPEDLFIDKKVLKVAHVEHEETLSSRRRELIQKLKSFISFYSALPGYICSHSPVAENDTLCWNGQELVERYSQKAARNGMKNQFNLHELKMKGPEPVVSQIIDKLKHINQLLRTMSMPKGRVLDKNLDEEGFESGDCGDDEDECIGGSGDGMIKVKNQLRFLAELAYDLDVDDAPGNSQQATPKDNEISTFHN

B1: 12-10 G(2)3' (ssDNA)
DNA: GGGAAGTGAATGCGTTGAATTATGTCCCTTCAGTCATCACCA
modifications: n = BzdU; S = gemcitabine [BzdU (T) at 7,11,15,16,20,21,23,25,29,30,34,37; gemcitabine (C) at 40,41]
With B1, the binding result in data set [1] is given as “binds”. As for GTGAATGCGTTGAATTATGTCCCTTCAGTCATCAC (ssDNA, n = BzdU; 3' idT) [12-12], in data set [2], the binding result was “binds”.

B2: 12-10 G(2)L (ssDNA)
DNA: GGGAAGTGAATGCGTTGAATTATGTCCCTTCAGTCATCAC
modifications: n = BzdU; S = gemcitabine [BzdU (T) at 7,11,15,16,20,21,23,25,29,30,34,37; gemcitabine (C) at 26,27]
As to B2, the binding result in data set [3] is “binds”.

The values are drawn from patent publication US20230127087, “GLYPICAN-3-SPECIFIC MODIFIED APTAMER AND USE THEREOF” (APTAMER SCIENCES INC., published 2023).
